From the supplement of paper PMC9170038

Tested on: K4 kissing-loop RNA reporter
Assay: apparent KD of K4 kissing-loop reporter; higher = weaker reporter binding
Settings: Eterna round: R107
Experimental: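 RNA-MaP round R107: designed RNA switches with theophylline, tryptophan, arginine or FMN aptamers are transcribed on-chip within common flanks. They are titrated with a labelled K4 kissing-loop RNA reporter in RNA-MaP buffer (100 mM Tris pH 7.5, 80 mM KCl, 4 mM MgCl2), without ligand or with the indicated ligand. Median apparent KD per design.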

[1] = input ligand: theophylline 20 uM
[2] = input ligand: tryptophan 2.4 mM
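Note: bound reporter read as fluorescence of individual clusters on recovered sequencing chips by microscopy, with normalized cluster intensities fitted with a binding model.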

| Sequence | apparent KD of K4 kissing-loop reporter (input ligand: FMN 200 uM) [nM] | apparent KD of K4 kissing-loop reporter (input ligand: arginine 13.2 mM) [nM] | apparent KD of K4 kissing-loop reporter (input ligand: none) [nM] | apparent KD of K4 kissing-loop reporter [1] [nM] | apparent KD of K4 kissing-loop reporter [2] [nM] |
| --- | --- | --- | --- | --- | --- |
| UGUAUGUGAUUUGAUACCAGACCAGCUGGUGGAAUCUGAGUGAUGUUCAGGUAGGUUUGGGUCCCUUGGCAGCAAAUCGCAUACU [KL-SSTheoB27] | 203 | 145 | 182 | 181 | 170 |
| CGGCGGAGUGAUGUUCCACCUACUGCGGAUACCAGCUUUGCCAAAGGCCCUUGGCAGCCGCACGGCUCAGUGAUGUUGGGUCGCG [Same State Theophylline A G11] | 225 | 179 | 244 | 223 | 199 |
| AGUCCACUCUAAAGAGUGGACCUAAGGGAUACCAGUGAUGUUGGUCACCCUUGGCAGCCCUCUGUCAUCGAUAAAGAUGGCAGAA | 142 | 110 | 114 | 112 | 108 |
| UGGAGUUGACGAAAAGUCAACUCCCGAGAAGGAGCGGACGAAAGUCCAGGUAGGUCGCUCGCUACCAGUGAUGUUGGUACUCAAA | 127 | 182 | 156 | 192 | 135 |
| CUGACGCUGAUACGGUGGCCGAUGGUCGUGCGAGGACCGGUACGGCCGCCACUCGCAUGAGUGAUGUUCAUGUGUCGUCGUCGUC [#06 K4 Tryptophan A Exclusion] | 135 | 115 | 130 | 106 | 142 |
| UGACUGGAUGGAAGGAGCGCUAAACUCCUAGUGAUGUUAGGGAAAUGAGACAAAGUCUCAAGGCAGGUAGGUCGCCAUCUAGUCU [FiskerMod 16 - Jieux - Same State - Arginine B] | 142 | 78.6 | 174 | 506 | 177 |
| UAAUUUAUGUCUUUAAUUUUAUUAUCAGAUACCAGUGAUUUAUGACACCCUUGGCAGCUGUAUUGAGUGAUGUUCUUAUAUUAAA [JR_Nu_ExcTheophyA_Sub023] | 111 | 111 | 118 | 190 | 72.5 |
| GGAUAGGACAGAGGAUAUGGACAGUCUACAAAGUAGGCUGAAAAUCCUUGAAUGGAAGUGAUGUUUCCAGAAGGCUGUCCUAUCG [FmnBX 20 - #SwitchBubble #StaticStem #Palindromic] | 558 | 145 | 165 | 164 | 150 |
| UGCGCUGUGUACUGUAAUGUUAUGCGGGAUACCAGAGUCUUUUUAUUCCCUUGGCAGCUUGAGUGAUGUUUGAUGCCGUUCUUGU [plpkmullin] | 481 | 327 | 504 | 452 | 401 |
| AAUGUGCAGGGAAGGAGCGUAGUCCAGUGCUGUUGGAGUUAAAUACCAGUGAUGUUGGUUAUACAGGUAGGUCGCCCUAAAGCGC [whbob_Ex_Arginine_B_2th160] | 141 | 176 | 158 | 211 | 129 |
| GUUACGCAUGGAAGGAGCGCAGGCUCAACAAAUAGCUCAGUGAUGUUGAGCAUAUUAAAUCUGCAGGUAGGUCGCCAUGUGUAAC [Ex Arginine B K4 24] | 498 | 500 | 504 | 559 | 581 |
| CAUAGGAAACUAUGUUCCUCUCUUACUGAAGGAGCGCGUGAAAACGCAGGUAGGUCGCAGGAUUUGAGAGUGAUGUUCUCAUUAA [Ex Arginine A K4 15] | 160 | 260 | 254 | 278 | 171 |
| GGUGCCGGGCAAGGAUAUUAGUCGAGUGAUGUUCGGCGGUCCAAGUCGUUGCGGCGUUAAACCCUUUGAGAAGGUGCCCGGUGCC [#2 Exclusion - FMN B Attempt #1 (HarryS)] | 198 | 144 | 193 | 195 | 163 |
| AAGUGUUCUAGUGAUACCAGACAUUUCUAUUUUAUCUUUAUAGCUAAGUGAUGUUUAGCAGUCCCUUGGCAGCACUAUUUCACUA [JR_SSTheophyB_Sub017] | 123 | 155 | 137 | 160 | 147 |
| UUUCUUUUAAUAACACUUUAUACAACUGAAGGAGCGACAAUAAAGUCAGGUAGGUCGCAGAAUUAAUGAGUGAUGUUCAUAUUUA [JR_ExcArginiA_Sub012] | 95.4 | 197 | 121 | 180 | 83 |
| GCCGUAGAUCGAAGGAGCGUGUCCAAACCUCAUUCAUGUACACACGAGUGAUGUUCGUGUACACAGGUAGGUCGCGAUCUACGGC [#04 K4 Arginine B Exclusion] | 344 | 281 | 331 | 294 | 310 |
| GGCACGGGCUCGGCCGCCACUCCCGCGGGUCGAAAGGUCCGCUACUGAGUGAUGUUCGGUUGGAGGAGGACCGGGAGCCCGUGCC [#2 Exclusion - Tryptophan B Attempt #23 (HarryS)] | 130 | 91.6 | 108 | 99.9 | 98.4 |
| UAGUUGCCGGUUUGUAGGCUUCGGCAGUGGGAGGAUAUGUUGACCGACAGAAGGCCCAGUGAUGUUGGGCGAUUGGCGGUGAGAU [Antebear] | 50 | 78.3 | 145 |  | 123 |
| UUGGAAAUCAGAAGGAGCGUCUAAAAUAAGAGAACCAGUGAUGUUGGUUUUAUUUAAUGAAGACAGGUAGGUCGCUGAAUUUUUA [Same State Arginie B GF 19] | 100 | 95.2 | 99.3 | 96.1 | 94.9 |
| CACUUACGUAGUGAUGUUACGAUCUCUGAUACCAGACAACUCUAAGUCCCUUGGCAGCAGUCAUUUUGCUUCAAAUUUACUCAAA [JR_ExcTheophyA_Sub013] | 691 | 577 | 706 | 661 | 520 |
| CGAGUGAUGUUCGUUUUUUACUCUUUUUGACAGGAUAUGCGGAAACGCAGAAGGGUCACCUUUGAGUUAAAAGGAGUUAUUUUUU [Ex FMN A 19] | 345 | 269 | 318 | 305 | 317 |

| Sequence | apparent KD of K4 kissing-loop reporter (input ligand: FMN 200 uM) [nM] | apparent KD of K4 kissing-loop reporter (input ligand: arginine 13.2 mM) [nM] | apparent KD of K4 kissing-loop reporter (input ligand: none) [nM] | apparent KD of K4 kissing-loop reporter [1] [nM] | apparent KD of K4 kissing-loop reporter [2] [nM] |
| --- | --- | --- | --- | --- | --- |
| AAUAUAGUGAUGUUAUAUAAGAAGGAGUUACGAGGACCGGUACGGCCGCCACUCGAAACGAGUGAGGGCUUGGGAGAUUGGGCCC [SSTryptA.I] | 404 | 346 | 444 | 377 | 264 |
| AGUGGACGUGUCUGGAGUGAUGUUCUGGAUACCAGACACGAAAGUGUCCCUUGGCAGCCGGAGUGAUGUUCCGGCGUUCACUAAA [Omei KL Theo A Exc B v5] | 462 | 239 | 402 | 396 | 307 |
| AAAUUCUUUUUUUUAUUUAACUUUUCAGAAGGAGCGUGGUAGUACACAGGUAGGUCGCUGAAUAUAAGACUAGUGAUGUUAGUUA [JR_SSArginiA_Sub009] | 172 | 190 | 235 | 215 | 165 |
| AAGGGCUAGGCGGCCGCCACUGGUCGUGUACACAUACAGACCAGUGAUGUUGGUAUUGUAUGCGACAGGACCGGGCCUAGCCCAA [Exclusion - Tryptophan B (Freestyle 29)] | 267 | 230 | 263 | 247 | 445 |
| AACUGUCAAGGACAACAUUACUGAGGUGAUACCAGCAUCGAAAGAUGCCCUUGGCAGCGCCAACUUGCAGUGAUGUUGCAAGUAA [BrourdMod 1 - Jieux - Exclusion - Theophylline A] | 169 | 141 | 157 | 159 | 164 |
| GCGGGCCCUGGAGGAUAUGAGUCGAGUGAUGUUCGGCGGUCCAUGCCGAUGCGGCGUUAUGCCCUUUUAGAAGGCCAGGGUCCGC [#2 Exclusion - FMN B Attempt #8 (HarryS)] | 543 | 234 | 283 | 302 | 289 |
| GGUGUUGUUUGUGCUGUUUUCCUCGUUCCUCGAGGACCGGUACGGCCGCCACUCGAGUGAUGUUUGGGUAGCGAUCCUUGUUAGU [Bdazzled - #7 Exc. Tryptophan A] | 336 | 226 | 341 | 264 | 441 |
| AGGCACGAGCAAGGAUAUCGAGUAGAGUGAUGUUCUGCCUGGGUUGGCUCGAAAGAGCCUUCUCAGCGAGAAGGUGCUCGUGCCU [#2 Same State - FMN A Attempt #21 (HarryS)] | 248 | 604 | 982 | 638 | 751 |
| AAAUAAUAAAUGCAGCCAGUGAUGUUGGAAGGAGCGUGCGAAAGCACAGGUAGGUCGCCAACCAAAGCUGGAAACAGCAACUGCA [#SwitchBubble 3 #K4Early] | 226 | 129 | 84.5 | 129 | 99.1 |
| UGGAUAUAGUGAUGUUAUAUAGAGAUGGAUACCAGCUGAGAGAAUAGCCCUUGGCAGCCGAAAGAAGUAUCAUUAGAGAAGAAUG [ExTheophyl.Aj] | 248 | 188 | 231 | 271 | 172 |
| UCUAAGGUCGAACCGGUAUGAUCACCGGAUACCAGAGGCGAAAGCCUCCCUUGGCAGCCGAGUGUAGUGAUGUUACACGGGUUCU | 166 | 147 | 175 | 310 | 166 |
| CAUUACGGUCGCUUACCAAACCACUACUUCCGAGGACCGGUACGGCCGCCACUCGCCAGUGAUGUUGGCUCGGGCGGCCGAUUAU [Orrebeante] | 117 | 103 | 109 | 97.9 | 106 |
| UACUGGGCGAGUGAUGUUUGCUCAUGUGAUACCAGUGCCAUCCAACACCCUUGGCAGCAUGCGGGCAGUGAUGUUGUCCAUGGAA [Exclusion Theophylline A GF10] | 629 | 597 | 667 | 645 | 640 |
| UGACAUUGCUCAGAUACCAGACUUGAGGAACACCCAAGUGCCAAAUAAACGUACAUAAAAGUCCCUUGGCAGCUGAGCAAUGUCU [TheoBX 11] | 66 | 34.1 | 62.5 | 104 | 45.3 |
| AAUUUAUAUUUAUUCUUUAAUUGUUCAGAAGGAGCGUGAAUUAUCACAGGUAGGUCGCUGAGCUAGUGAUGUUAGCUAUAUACUA [JR_ExcArginiA_Sub008] | 65.5 | 105 | 62.8 | 82.8 | 58.4 |
| AGACUACUGACAGGAUAUAACAUACUAGCUCGUAUACCAAAGGUAUACGAGCACCUUCUAGUGAUGUUAGAAGGGUCGGUAGUCA [Omei KL FMN B Exc B v2] | 412 | 264 | 300 | 310 | 310 |
| UACUAACGUUAAGGAUAUGCGUCGAUUACCGGUAAGUGAUGUUUAGCGCCCGGGCAACGGUGGGUCGCAGAAGGUAAACACAGUU [theeternabot_sameState_KL_FMN_B_19] | 689 | 551 | 795 | 640 | 610 |
| ACUACGAAGACGGCCGCCACUGAUAUUCGUAGAUCCAUCAUUGCAUGAGUGAUGUUCAUGUAUAUCAGGACCGGGUCAAGAUGGU [KL-XTryp-B18 #analogue] | 295 | 245 | 305 | 282 | 213 |
| GGUAGCAUGGCGGCCGCCACUUCAAGUGGAGUGAUGUUCCACGGCAUCGCGAAAGCGAUGCCUGGAAGGACCGGGCCAUGCUACC | 738 | 739 | 720 | 761 | 284 |
| AGUGCACUGUCAGGAUAUAUACAGUGAUGUUGUGUAUGUCAGCAAGUCAAAGACUUGCUAUUCUGUGUAGAAGGGACUGUGUACA [Omei KL FMN B Exc A v1] | 607 | 203 | 230 | 207 | 221 |
| UGGAGUUGACGAAAAGUCAACUCCUGGGAAGGAGCGGACGAAAGUCCAGGUAGGUCGCCCACUACCAGUGAUGUUGGUACUCAAA | 178 | 196 | 170 | 266 | 169 |
